The record followed here is article PMC2785583 (The Journal of Biological Chemistry, 2009).

Data set [1] deals with the molecule itself. Briefly: SDS-PAGE.
Data set [2] has as its target Protein FAF (F. magna adhesion factor), recombinant, amino acids 28-616 (Finegoldia magna). The experiment in a line: SPR. A general note: SPR reads the build-up and loss of mass on a sensor chip optically.

B1: Recombinant human MIG/CXCL9 (monokine induced by gamma-interferon) (ligand, UniProt Q07325 23-125, looked up)
chain: TPVVRKGRCSCISTNQGTIHLQSLKDLKQFAPSPSCEKIEIIATLKNGVQTCLNPDSADVKELIKKWEKQVSQKKKQKNGKKHQKKKVLKVRKSQRSRQKKTT
The Kd is the constant that tells how readily two partners part at equilibrium. For B1, the binding result in data set [1] was “binds”. Besides, in data set [2], the Kd was 4.9 nM.
